Measured values from US20180371033A1, “THERAPEUTIC PEPTIDES AND METHODS OF USE THEREOF” (priority 2015, published 2018).

Legend:
[1] = format: in vivo, mice; details: 14C whole body autoradiography
Text: This example describes biodistribution of peptides.
ND indicates the peptide was not detected in that tissue.

[2] = Brain section autoradiography: peptide homing to ventricles and cerebral spinal fluid; format: in vivo, Female Harlan athymic nude mice; details: 14C signal in sagittal/coronal brain sections, 3 hours after administration
Text: The experiment was done in duplicates.

[3] = for Blood (densitometric signal in the heart blood) / Brain (percentage of signal in that tissue compared to the signal detected in the heart blood): 14C-radiolabeled peptide, tail vein injection, kidneys ligated, target three hours circulation
Procedure: This example illustrates the dosing of peptide. […] The experiment was done in duplicates.
A target dosage of 20 nmol of each peptide was administered to separate flank sarcoma A204 tumor bearing Female Harlan athymic nude mice while anesthetized. The dosage was adjusted for whole body autoradiography. […] Some animals died after receiving the peptides, possibly due to complications of the anesthesia and surgical procedure used to ligate the kidneys of each mice, or due to toxic effects of some peptides. The circulation time of each peptide varied from animal-to-animal. […] Inulin was used as a negative control, as this polysaccharide is known to not cross the BBB.
At the end of the dosing period, mice were frozen in a hexane/dry ice bath and then frozen in a block of carboxymethylcellulose. Thin, frozen sections of whole animal sagittal slices that include the brain, tumor, liver, kidney, lung, heart, spleen, pancreas, muscle, adipose, gall bladder, upper gastrointestinal track, lower gastrointestinal track, bone, bone marrow, reproductive track, eye, cartilage, stomach, skin, spinal cord, bladder, salivary gland, and other types of tissues were obtained with a microtome, allowed to dessicate in a freezer, and exposed to phosphoimager plates for about ten days.
These plates were developed, and the signal (densitometry) from each organ was normalized to the signal found in the heart blood of each animal. A signal in tissue darker than the signal expected from blood in that tissue indicates accumulation in a region, tissue, structure or cell. Fluoxetine can cross the blood brain barrier, and is a positive control. Inulin cannot cross the blood brain barrier, and is a negative control. FIG. 2 illustrates ^14C signal in the brain and other tissues for the fluoxetine (top) and inulin (bottom) control groups.
Furthermore, the brain contains approximately 3% blood. Thus when comparing the radioactivity signal per area in blood to that in the brain, a signal in the brain that is much higher than 3% of the signal in blood can be attributed to accumulation of the material in the brain through the BBB. A ratio of at least 10% diffuse signal in brain versus blood was chosen as a reference level for high penetration. The densitometric signal can also indicate high concentration within specification locations in the brain, which can indicate crossing the BBB and/or the blood CSF barrier. […] Numbers for blood indicate the densitometric signal in the heart blood. Numbers for the brain indicate the percentage of signal in that tissue compared to the signal detected in the heart blood.

| Substance | Adipose (percentage of signal compared to blood in the heart) [1] [%] | Gall bladder (percentage of signal compared to blood in the heart) [1] [%] | Liver (percentage of signal compared to heart blood) [1] [%] | Lower GI (percentage of signal compared to blood in the heart) [1] [%] | Lung (percentage of signal compared to heart blood) [1] [%] | Muscle (percentage of signal compared to blood in the heart) [1] [%] | Pancreas (percentage of signal compared to blood in the heart) [1] [%] | Reproductive (tract; percentage of signal compared to heart blood) [1] [%] | Salivary gland (percentage of signal compared to heart blood) [1] [%] | Spleen (percentage of signal compared to blood in the heart) [1] [%] | Upper GI (percentage of signal compared to blood in the heart) [1] [%] | localization of the peptide to specific structures in the brain [2] | Blood (densitometric signal in the heart blood) [3] | Brain (percentage of signal in that tissue compared to the signal detected in the heart blood) [3] [%] | penetration of the blood brain barrier in comparison with the negative controls ([3]; reference level for high penetration: at least 10% diffuse signal in brain versus blood) |
| --- | --- | --- | --- | --- | --- | --- | --- | --- | --- | --- | --- | --- | --- | --- | --- |
| GSGVPINVKCRGSRDCLDPCKKAGMRFGKCINSKCHCTP [SEQ ID NO: 34] | 11.69 | 35.52 | 82.37 | 20.73 | 118.19 | 34.13 | 30.35 | 229.69 | 57.57 | 54.28 | 216.32 | specific structures in the brain, such as ventricles and CSF | 6552245640 | 9.30 | highly penetrate the blood brain barrier |
| Inulin [reference compound] | 5.98 | 18.65 | 126.76 | 10.92 | 242.98 | 19.80 |  | 129.37 | 27.58 |  | 382.27 |  | 900918901.9 | 3.00 |  |
